Laboratory results reported in US8906844B2 (SYNTONIX PHARMACEUTICALS, dated 2014).
Like-named read-outs stand apart in the source and are kept apart here. Starred links: 1 amine or outer side, 2 acyl side, 3 side chain; linkers in the order of their positions; H or OH if unused. Positions of bridges follow the written chain, without caps; N, C: chain ends. Non-standard residues stand in square brackets, D forms with d. No end group written: not given here. X1 = 3(R)‑3‑amino‑2‑oxo‑1‑piperidine‑acetic acid, O=C1[C@H](N[*:1])CCCN1CC(=O)[*:2]; NMeL = CN[C@@H](CC(C)C)C(=O)O; Pen = CC(C)(S)[C@H](N)C(=O)O; NMeA = CN[C@@H](C)C(=O)O

Legend:
[1] = target: T1, soluble human FcRn (shFcRn) (human, UniProt P55899 24-297; P61769 21-119, biotinylated with Sulfo-NHS-LC-Biotin in the ELISA; amine-coupled to a CM5 chip in SPR); assay: SPR, pH 6
T1 construct: also called biotinylated shFcRn
Method: (§1) The following steps were performed to cross-link soluble human or cynomolgus FcRn to the dextran surface of a CM5 sensor chip (Biacore AB, Uppsala, Sweden) by an amine coupling reaction involving 1-ethyl-(3-dimethylaminopropyl)-carbodiimide hydrochloride (EDC) (Biacore AB, Uppsala, Sweden) and N-hydroxysuccinimide (NHS) (Biacore AB, Uppsala, Sweden) as recommended by Biacore (BIAapplications Handbook, version AB, section 4.2, Biacore AB, Uppsala, Sweden). The FcRn protein was diluted in 50 mM sodium acetate, pH 4.5 (Biacore AB, Uppsala, Sweden) to a concentration of 10 to 30 µg/ml and used to coat one flow cell on the sensor chip. Residual sites on the FcRn flow cell were blocked with 1 M ethanolamine hydrochloride pH 8.5 (Biacore AB, Uppsala, Sweden). A control flow cell was blocked with ethanolamine for reference subtraction. For analysis of the monomeric peptides, FcRn was coated to a final density of 4000-5000 response units (RU). For analysis of the peptide dimers, FcRn was coated to a density of 2000-2500 RU. All SPR measurements were performed using a BIACORE 3000 Instrument (Biacore AB Uppsala, Sweden). For measurements done at either pH 6 or pH 7.4, experiments were performed in 50 mM phosphate, 100 mM sodium chloride, 0.01% surfactant P20 (Biacore AB, Uppsala, Sweden).
(§2) A. Representative Procedure for the Determination of Binding Constant of Monomeric Peptides Ten 2-fold dilutions of the peptide were injected over the FcRn-CM5 chip at a rate of 20 µl/min for 2 min. The peptide was dissociated from the chip for 2.5 minutes with buffer. Any remaining peptide was removed from the chip with a 30 second injection of HBS-P buffer (Biacore AB, Uppsala, Sweden) at a rate of 30 µl/min. Sensorgrams were generated and analyzed using BiaEval software version 3.1 (Biacore AB, Uppsala, Sweden). The equilibrium RU observed for each injection was plotted against concentration. The equilibrium K_D values were derived by analysis of the plots using the steady state affinity model included in the BiaEval software.

[2] = target: T1, soluble human FcRn (shFcRn); assay: competition ELISA vs human IgG
Method: (§3) The wells were coated with 100 μl/well of 1 μg/ml biotinylated-shFcRn in Buffer A. The plate was sealed and incubated at 37° C. for 2 hours. Afterwards, the plate was washed with 200 μl/well of Buffer B (Buffer B: 100 mM MES pH 6, 150 mM NaCl, 0.5% BSA IgG-free (Jackson ImmunoResearch, West Grove, Pa.), 0.05% Tween-20). […] To allow for mixing, the plate was rocked for 2 minutes, sealed and incubated at 37° C. for 2 hours. […] The plate was covered, incubated for 30 minutes at room temperature and washed 4 times with 200 μl/well of ice-cold buffer B. SureBlue TMB substrate solution (100 μl/well, KPL, Gaithersburg, Md.) was added and the plate was allowed to incubate at room temperature until color developed, which took 5 to 10 minutes. Once color developed, 100 μl/well of TMB stop solution (KPL, Gaithersburg, Md.) was added and the absorbance was measured at 450 nm.

[3] = target: T1, soluble human FcRn (shFcRn); assay: SPR, pH 7.4
Method: as §1, with “All SPR measurements were performed using a BIACORE 3000 Instrument (Biacore AB Uppsala, Sweden). For measurements done at either pH 6 or pH 7.4, experiments were performed in 50 mM phosphate, 100 mM sodium chloride, 0.01% surfactant P20 (Biacore AB, Uppsala, Sweden).” left out
(§4) A. Representative Procedure for the Determination of Binding Constant of Monomeric Peptides Ten 2-fold dilutions of the peptide were injected over the FcRn-CM5 chip at a rate of 20 µl/min for 2 min. […] Sensorgrams were generated and analyzed using BiaEval software version 3.1 (Biacore AB, Uppsala, Sweden). […]

[4] = target: T1, soluble human FcRn (shFcRn); assay: SPR, pH 6; remark: listed apart in the source
Method: as §1, §2

[5] = target: T1, soluble human FcRn (shFcRn); assay: competition ELISA vs human IgG; remark: listed apart in the source
Method: as §3

[6] = target: T1, soluble human FcRn (shFcRn); assay: SPR, pH 7.4; remark: listed apart in the source
Method: as §1, §2

[7] = target: T1, soluble human FcRn (shFcRn); assay: SPR, pH 7.4
[8] = target: T1, soluble human FcRn (shFcRn); assay: SPR, pH 6; small-letter c (D-cysteine) at both Cys positions
Method: as §1, with “All SPR measurements were performed using a BIACORE 3000 Instrument (Biacore AB Uppsala, Sweden). For measurements done at either pH 6 or pH 7.4, experiments were performed in 50 mM phosphate, 100 mM sodium chloride, 0.01% surfactant P20 (Biacore AB, Uppsala, Sweden).” left out
as §4

[9] = target: T1, soluble human FcRn (shFcRn); assay: SPR, pH 6; Tyr replaced by NMeTyr (N-methyl scan)
Method: as §1, with “All SPR measurements were performed using a BIACORE 3000 Instrument (Biacore AB Uppsala, Sweden). For measurements done at either pH 6 or pH 7.4, experiments were performed in 50 mM phosphate, 100 mM sodium chloride, 0.01% surfactant P20 (Biacore AB, Uppsala, Sweden).” left out
as §4

[10] = target: T1, soluble human FcRn (shFcRn); assay: SPR, pH 6; small-letter c (D-cysteine) at first Cys position, no Pen
Method: as §1, with “All SPR measurements were performed using a BIACORE 3000 Instrument (Biacore AB Uppsala, Sweden). For measurements done at either pH 6 or pH 7.4, experiments were performed in 50 mM phosphate, 100 mM sodium chloride, 0.01% surfactant P20 (Biacore AB, Uppsala, Sweden).” left out
as §4

[11] = target: T1, soluble human FcRn (shFcRn); assay: competition ELISA vs human IgG; remark: listed apart in the source
Method: as §3

[12] = target: T1, soluble human FcRn (shFcRn); assay: competition ELISA vs human IgG; remark: listed apart in the source
[13] = target: T1, soluble human FcRn (shFcRn); assay: SPR, pH 6; remark: listed apart in the source

Kd [1] [nM] | IC50 [5] [nM] | Kd [6] [nM] | Binder | further results
500 | 5500 | – | RFXTGRFGXXYPC (Pen3; Sar9; NMeLeu10; disulfide; C-terminal amide) [Peptide No. 256] | Kd [7]: 500 nM
1300 | 40000 | – | RFXTGKFGXXYPC (Pen3; Sar9; NMeLeu10; disulfide; C-terminal amide) [Peptide No. 255] | Kd [7]: 1100 nM
3300 | – | – | RFXTGFFGXXYPC (Pen3; Sar9; NMeLeu10; disulfide; C-terminal amide) [Peptide No. 265] | Kd [7]: 4200 nM
– | > 500000 | – | QRFXTGHFGGLYPXNGP (D-Cys4; D-Cys14; disulfide; C-terminal amide) [Peptide No. 31] | Kd [8]: 200000 nM
5800 | 52000 | 96000 | QRFVTGHFGXWYPANGP (D-Pro10; unbridged; C-terminal amide) [Peptide No. 177] | –

The next lines start with the binder.

Binder | Kd [1] [nM] | IC50 [5] [nM] | Kd [6] [nM] | further results
QRFXTGHFGXXYPCNGP (Pen4; Sar10; NMeLeu11; disulfide; C-terminal amide) [Peptide No. 187] | 46 | 420 | 230 | IC50 [2]: 420 nM; Kd [3]: 230 nM; Kd [4]: 46 nM
RFXTGHFGXXYPC (Pen3; Sar9; NMeLeu10; disulfide; C-terminal amide) [Peptide No. 235] | 31 | 490 | 170 | IC50 [2]: 490 nM; Kd [3]: 170 nM; Kd [4]: 31 nM
QRFCTGHFXXLYPCNGP (D-Ala9; D-Ala10; disulfide; C-terminal amide) [Peptide No. 24] | 22000 | 69000 | > 250000 | –
QRFXTGHFXXXYPCNGP (Pen4; D-Ala9; Sar10; NMeLeu11; disulfide; C-terminal amide) [Peptide No. 188] | – | – | – | IC50 [2]: 6500 nM; Kd [4]: 730 nM
QRFXTGHFGGLXPCNGP (Pen4; NMeTyr12; disulfide; C-terminal amide) [Peptide No. 114] | – | – | – | Kd [9]: 92000 nM
QRFXTGHFGGLYPCNGP (D-Cys4; disulfide; C-terminal amide) [Peptide No. 29] | – | – | – | Kd [10]: 150000 nM
RFVTGHFGXXYPA (Sar9; NMeLeu10; unbridged; C-terminal amide) [Peptide No. 236] | – | 37000 | 9000 | IC50 [11]: 37000 nM
RF[Pen][NMeA]GHF[X1][NMeL]YPC-NH2 (disulfide 3-12 (inferred)) [Peptide No. 228] | – | – | – | IC50 [12]: 1100 nM; Kd [13]: 145 nM
